According to patent publication US7491501B2, “Methods for identifying modulators of intracellular aggregate formation” (Auburn University, priority 2003, dated 2009):

Key:
[1] = system: internalization of NGF by PC12 cells; assay: Internalization of NGF, 125I-NGF binding assay in PC12 cells (FIG. 15D); format: cell-based; conditions: PC12 cells pretreated with peptide (150 μM); control not shown
Protocol: Additionally, PC12 cells were pretreated or not with TRAF6 peptide (150 μM) followed by measurement of internalized receptor employing 125I-NGF binding assay (FIG. 15D). […] Similarly, the level of internalized NGF was measured in PC12 cells transfected with wild-type ubiquitin, K48R or K63R ubiquitin mutants (FIG. 15E). Transfection of ubiquitin, or K48R mutant was without any effect on internalization of NGF. By comparison, transfection of K63R ubiquitin mutant totally abrogated internalization of the ligand. […] Thus, p62 serves as an adaptor, as well as, a scaffold for TRAF6-directed ubiquitination and K63 chains play a signaling role for internalization and sorting of the receptor.

[2] = system: p62 aggregates in HEK cells; assay: p62 aggregate formation by confocal/fluorescence microscopy in transfected HEK cells; format: cell-based, Human
Protocol: Immunofluorescence staining—All steps were done at room temperature unless stated otherwise. The inclusion bodies were placed on poly-L-lysine coated 12 well slides (Cel-line/Erie Scientific Co., Portmouth, N.H.) and let partially dry. Inclusion bodies on the slides were fixed for 10 min in 3% paraformaldehyde (Electron Microscopy Sciences, Fort Washington, Pa.) and permeabilized with 0.1% Triton X-100 in PBS for 15 minutes. The inclusion bodies were incubated in blocking buffer (3% non fat dry milk in PBS) for 1 h, prior to incubation with primary antibodies at 4° C. overnight. After washing with PBS, the secondary antibody (Molecular Probes Inc., Eugene, Oreg.) in blocking buffer was applied for 1 h. After extensive washing in PBS, the samples were mounted using Vectashield (Vector Laboratories Inc., Burlingame, Calif.). The cells were fixed with 3% paraformaldehyde and processed similar to that of inclusion staining.
Cells were incubated with rabbit anti-myc IgG or mouse anti-HA IgG and labeled with Texas Red-conjugated anti-rabbit antibodies (red) or Oregon Green-conjugated anti-mouse antibodies (green), respectively. Merged images with overlapping immunoreactivity are shown in yellow. Note that cells expressing p62 lacking its UBA domain (p62ΔUBA) fail to form aggregates or to colocalize with ubiquitin. All experiments were replicated three independent times with similar results. Small aggregates of p62 colocalized with ubiquitin which was dependant upon the presence of a UBA domain but not the N-terminal portion of p62. Aggregation may impair the proteasome or, alternatively, impaired proteasome activity may seed aggregates. Alternatively, impairment of the proteasome may enhance the formation of p62 aggregates containing polyubiquitin.
In summary, through its UBA domain, p62 Interacts with polyubiquitinated substrates, and the UBA domain is necessary for aggregate formation.
Since TRAF6 localized to the large aggregates along with polyubiquitin (FIG. 2B), these aggregates may represent the failed attempt of the cell to rid itself of TRAF6-K63-polyubiquitinated substrates sequestered through interaction with the UBA domain. […] Altogether, these findings reveal that p62 binds proteins with K63 chains through its UBA domain and that p62 aggregates sequester TRAF6 as well as K63-polyubiquitinated substrates.
To further determine if the coassociation of tau-p62-TRAF6 and UbcH7 could be recapitulated in vitro, a cotransfection approach was undertaken. […] HEK cells were transfected with GFP-p62 followed by treatment or not with Aβ1-42 and Aβ42-1 peptides. […] This is consistent with the observation that microtubule dependent transport is important for the formation of p62 inclusions as assessed by treatment of the cells with nocodazole, a microtubule disrupting agent (9).

[3] = target: T1, interaction of p62 with TRAF6 (Rattus norvegicus, UniProt B5DF45); assay: TRAF6 immunoprecipitation and Western blot for p62/UbcH7 in NGF-stimulated PC12 cells; format: cell-based; conditions: NGF 15 min
T1 construct: followed by NGF stimulation for 15 min and immunoprecipitation of TRAF6 followed by Western blotting for p62; endogenous in cells; host or cells: PC12
Protocol: Immunoprecipitation and Western blotting—Each mg of lysate/inclusion bodies was incubated with 41 ng of primary antibody at 4° C. for 3 h and then with 50 μl of 50% agarose-coupled secondary antibody for 2 more hours at 4 C. The beads were washed three times with lysis buffer, eluted by adding SDS-PAGE sample buffer, and subjected to SDS-PAGE in 7.5-12% acrylamide gels. Immunoblotting was performed on nitrocellulose membranes and analyzed by western blotting with ECL detection reagents (Amersham Biosciences).
The region spanning amino acids 225-251 is necessary for the interaction of p62 with TRAF6. The peptide containing TRAF6 binding motif in p62 along with the hydrophobic sequence containing the cell-permeable motif from Kaposi fibroblast growth factor sequence, […]-[…] (SEQ ID NO. 4) and control peptide […]-[…] (SEQ ID NO. 5) was synthesized. As a preliminary step, PC12 cells were pretreated with various concentrations of peptide for 5 h, followed by NGF stimulation for 15 min and immunoprecipitation with TRAF6 and western blotted with p62. […] The peptide was then tested for its ability to block NGF-induced tau polyubiquitination (FIG. 13A).
The peptide containing the TRAF6-binding motif in p62 along with the hydrophobic sequence containing the cell-permeable motif from Kaposi fibroblast growth factor signal sequence […]-[…] (SEQ ID NO. 4) and control peptide […]-[…] (SEQ ID NO. 5) was synthesized. As a preliminary step, PC12 cells were pretreated with different concentrations (75-300 μM) of TRAF6 peptide for 5 hours followed by NGF stimulation for 15 min and immunoprecipitation of TRAF6 followed by Western blotting for p62. […] To address whether TRAF6 peptide affects the interaction of p62 and UbcH7 with TRAF6, PC12 cells were treated with or without 150 μM of control peptide or TRAF6 peptide for 5 hours and then stimulated with NGF for 15 min. By immunoprecipitating TRAF6, TRAF6 peptide (150 μM) abrogated the interaction of p62 with TRAF6, but not UbcH7, upon NGF treatment (FIG. 8A). […] The ability of the TRAF6 peptide to impair the ubiquitination process was investigated. Lysates recovered from NGF treated cells were immunoprecipitated with TrkA receptor antibody and blotted for ubiquitin or the receptor (FIG. 15B). […] The ability of the peptide to interrupt the formation of the functional TrkA-p62-TRAF6-UbcH7 complex on NGF stimulation as well was also investigated. TrkA was immunoprecipitated and blotted for the presence of each protein in the complex (FIG. 15C).

T1 sequence (B5DF45 whole entry): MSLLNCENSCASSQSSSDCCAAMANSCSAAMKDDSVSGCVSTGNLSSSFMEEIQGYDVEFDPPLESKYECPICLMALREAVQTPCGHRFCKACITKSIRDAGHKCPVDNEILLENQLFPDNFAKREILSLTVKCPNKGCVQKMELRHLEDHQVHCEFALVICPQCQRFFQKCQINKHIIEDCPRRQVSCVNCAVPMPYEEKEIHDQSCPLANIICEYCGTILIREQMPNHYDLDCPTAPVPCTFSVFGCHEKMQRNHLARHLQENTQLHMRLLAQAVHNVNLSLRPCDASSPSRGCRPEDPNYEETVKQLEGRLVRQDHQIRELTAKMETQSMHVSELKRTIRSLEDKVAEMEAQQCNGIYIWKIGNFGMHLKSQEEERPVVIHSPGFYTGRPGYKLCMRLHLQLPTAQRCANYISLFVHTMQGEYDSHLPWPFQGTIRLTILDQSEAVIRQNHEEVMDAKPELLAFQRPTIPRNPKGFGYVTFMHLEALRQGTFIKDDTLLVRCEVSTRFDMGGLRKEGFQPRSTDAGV
T1 sequence (D3Z8W5 1-154 partner): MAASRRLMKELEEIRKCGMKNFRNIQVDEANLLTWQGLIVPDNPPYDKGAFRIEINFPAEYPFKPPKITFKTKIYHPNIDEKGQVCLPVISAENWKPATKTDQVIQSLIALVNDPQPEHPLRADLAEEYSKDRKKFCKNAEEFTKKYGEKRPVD

- interaction of UbcH7 with TRAF6 ([3]; 150 μM peptide 5 hours): not
- interaction of p62 with TRAF6 ([3]; 150 μM peptide 5 hours): completely abrogated
- optimum dose to block the interaction of p62 with TRAF6 ([3]; 75-300 μM peptide 5 hours, not shown): 150 µM
- concentration of peptide found to block TRAF6 interaction with p62 ([3]; peptide 5 h, not shown): One hundred and fifty
Substance: AAVALLPAVLLALLAP-ESASGPSEDPSVNFLK (AAVALLPAVLLALLAPESASGPSEDPSVNFLK; artificial sequence for cell permeable peptide) [TRAF6 peptide]
- internalization of NGF [1]: significantly blocked
- reduction in the formation of large aggregates ([2]; pretreatment with inhibitory dose of peptide prior to ALLN, GFP-p62 HEK cells): 60%
- effect on size of the p62 aggregates ([2]; pretreatment with peptide prior to ALLN (FIG. 2D), control peptide data not shown): decrease in the size of the p62 aggregates
